Source: patent US20160115237A1 (UNIVERSITY OF BRITISH COLUMBIA, published 2016)

T1: human Fas receptor (FasR) on the surface of HUVEC cells (human, UniProt P25445 26-335)
T1 construct: whole, on cells; also called hTNFRSM6; hTNFR6
T1 sequence (looked up): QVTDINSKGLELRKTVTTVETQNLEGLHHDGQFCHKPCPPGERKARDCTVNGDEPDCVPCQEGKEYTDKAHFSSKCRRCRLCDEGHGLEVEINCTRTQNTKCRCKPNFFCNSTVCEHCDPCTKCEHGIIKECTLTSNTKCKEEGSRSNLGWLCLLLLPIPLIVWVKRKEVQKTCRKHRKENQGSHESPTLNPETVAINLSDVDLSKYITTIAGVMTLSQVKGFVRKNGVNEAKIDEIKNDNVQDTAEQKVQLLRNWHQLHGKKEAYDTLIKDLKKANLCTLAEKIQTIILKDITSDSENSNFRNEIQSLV


Tests used:
[1] = target: PrP rigid loop peptide … (DSE3) (human)
[2] = target: T1, human Fas receptor (FasR) on the …; assay: flow cytometry on mitomycin C-treated senescent HUVEC cells, antibody at 40 µg/ml

Binder	Kd [1] [nM]	binding result [2]
antibody c-120 (misfolded PrP rigid loop antibody) (antibody) heavy: QSVEESGGHLVTPGTPLTLTCTVSGIDLSTYAMGWVRQAPGKGLEWIGVITKSGNTYYASWAKGRFAISKTSTTVDLKITSPTTEDTATYFCGRYGIGVSYYDIWGPGTLVTVSSGQPKAPSVFPLAPCCGDTPSSTVTLGCLVKGYLPEPVTVTWNSGTLTNGVRTFPSVRQSSGLYSLSSVVSVTSSSQPVTCNVAHPATNTKVDKTVAPSTCSKPTCPPPELLGGPSVFIFPPKPKDTLMISRTPEVTCVVVDVSQDDPEVQFTWYINNEQVRTARPPLREQQFNSTIRVVSTLPIAHQDWLRGKEFKCKVHNKALPAPIEKTISKARGQPLEPKVYTMGPPREELSSRSVSLTCMINGFYPSDISVEWEKNGKAEDNYKTTPAVLDSDGSYFLYSKLSVPTSEWQRGDVFTCSVMHEALHNHYTQKSISRSPGK light: AQVLTQTPSPVSAAVGGTVTINCQSSQSLYNKNWLSWYQKKPGQPPKLLIYKASTLESGVSSRFKGSGSGTQFTLTISGVQCDDAATYYCQGEFSCSSADCTAFGGGTEVVVKGDPVAPTVLIFPPAADQVATGTVTIVCVANKYFPDVTVTWEVDGTTQTTGIENSKTPQNSADCTYNLSSTLTLTSTQYNSHKEYTCKVTQGTTSVVQSFNRGDC	0.1	
antibody AMF-3a-118 (misfolded FasR antibody) (antibody, V domains shown) VH: QSVEESGGRLVTPGTPLTLTCKASGFSLSDSRVSWVRQAPGKGLEWIGIVGIGWNIYHANWAKGRFTISKTSSTTVDLKITSPTVEDTATYFCARGLGGGTVIWGPGTLVTVSL VL: AQVLTQTPASVSAAVGGTVTISCQSSESVYKNNYLSWFQQKPGQPPKLLIYEASKLASGVSTRFKGSGSGTQFTLTISGVQCDDAATYYCLGEFSCYSGDCGTFGGGTAVVVKG		binds
